The assay concerns the target Rabbit skeletal actin (unoxidized) (rabbit) (UniProt P68135). The assay is described as follows: other fluorescence titration; profilin stock titrated into 0.15 uM actin; quenching of the intrinsic tryptophan fluorescence of actin, excitation 295 nm, emission 330 nm; 5 mM PIPES pH 7, 0.2 mM CaCl2, 0.2 mM ATP, 0.5 mM DTT (G-buffer conditions).

On to “human profilin-1 (from UniProt P07737 1-140) (natural protein; other documents disagree on this pair)”, for which the Kd (commonly the equilibrium constant for the complex coming apart) was 500 nM.

The record behind these values is publication PMC8452626.
